Experiments:
Conditions in all cases: one partner purified
[1] = target: T1, Junín virus nucleoprotein (N) of strain Candid#1, expressed from a plasmid (Junin mammarenavirus, Candid#1, UniProt F4ZL09, strain); experiment: immunostaining of cells or tissue
T1 construct: also called N from Candid#; Candid#1N; source: Vero cells, transfected (Fugene), in fixed and permeabilized cells

[2] = target: T2, Junín virus nucleoprotein (N) of strain XJCl3, expressed from a plasmid (Junín virus (Junin mammarenavirus), …, UniProt F4ZL09, strain); experiment: immunostaining of cells or tissue
T2 construct: also called N from XJCl3

[3] = target: T3, Junín virus nucleoprotein (N) in Candid#1-infected cells (Junin mammarenavirus, Candid#1, UniProt F4ZL09, strain); experiment: co-IP
T3 construct: also called viral N; Candid#1N

Measured: binding result

B1: VHH 2.3 (VHH)
VHH: QVQLVESGGGLVQPGGSLRLSCAASGSIDSINAMAWYRQAPGKERELVAGISKNGIPWYLDSLKGRFNVSRDNAKNTLYLQIHNLKPEDAAMYYCASSSRTIATTTNEFDFWGQGTQVTVSS
notes: source: E. coli, periplasmic extract, purified (Ni-NTA); not shown: His6, C-terminal, kept
binds: all assays above
